Columns and labels:
[1] = tested on: MS2 coat protein; experiment: apparent KD of MS2 coat protein, switch ON state; designed switch direction (-1 OFF switch, 1 ON switch): -1; higher = weaker reporter binding; details: FMN input: 0 or 200 uM; Eterna round: R93 (includes R88 designs)
Outline: (§1)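 Normalised binding curves from single clusters were fitted, and the median fit for each design is given as apparent KD. The clusters held designed RNA switches transcribed on-chip from Illumina sequencing clusters. These were titrated with SNAP-549-labelled MS2 coat protein (twofold steps from 0.7 or 1.5 nM to 3 µM, 0.8–1.5 h to 10–20 min per step) in 100 mM Tris-HCl pH 7.5, 80 mM KCl, 4 mM MgCl2, without or with constant ligand.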

[2] = tested on: MS2 coat protein; experiment: apparent KD of MS2 coat protein, switch OFF state (with FMN for OFF switches, without FMN for ON switches); designed switch direction (-1 OFF switch, 1 ON switch): -1; higher = weaker reporter binding; details: FMN input: 0 or 200 uM; Eterna round: R93 (includes R88 designs)
Outline: as §1

Sequence	apparent KD of MS2 coat protein [1] [nM]	apparent KD of MS2 coat protein [2] [nM]
AAAGGAUCAGGAUAUGCGUGGAAAAAGUGUAUUCAAAAAAAACAUGAGGAUCACCCAUGUAGAAGGGAUCCAAA [Normal (20/19)]	140	546
AAAUACUAAGGAUAUACAUGAGGAUCACCCAUGUACAAACCCGUGGAACGGAUCCUUAGUAGAAGGUGGACGAA [Onquerar]	13.6	13.9
AAAUCAGUAGGAUAUACGAUUUGGUACUAGACCGAGGAACCACAUGAGGAUCACCCAUGUAGAAGGACUAGAUA [EX2 Malc#21]	17.2	12.9
AAAUGACAUGAGGAUCACCCAUGUCAGGAUAUGACUUGAAAAAAAAAAAAAAAACAUGUCAGAAGGGACAUGGG [Design 50: Sub-opt FB]	15.7	9.45
AAAUGACAUGAGGAUCACCCAUGUCAGGAUAUGACUUGAAAAAUAAAAUAAAAACAUGUCAGAAGGGACAUGGA [Design 51: Sub-opt GB]	23.9	20.8
AAAUGACUAGGAUAUACAUGAGGAUCACCCAUGUGUUAAAAUAAAUACACAAAAGAAAGUAGAAGGAGUCAAAA [Ex 3 May 15]	22.3	59.7
AAAUUGUCAGGAUAUCUUAGAACUGUCAAAGACAGGAGCUAAGAGAAGGGACAUGAGGAUCACCCAUGUAAAAC [May 90]	64	88.5
AAAUUGUCAGGAUAUCUUAGAAUAGUCAAAGACUAGAGCUAAGAGAAGGGACAUGAGGAUCACCCAUGUAAAAC [May 91]	61.8	56.6
AACAAACAUGAGGAUCACCCAUGUCAGGAUAUGCAAACAACAAACAACAAACAACAAAGCAGAAGGGACAACAA [e1-3]	19.9	25.1
AACAAACAUGAGGAUCACCCAUGUCAGGAUAUGCAAACAACAAACAACAAACAACAAAGCAGAAGGGACGACAA [63%, Olong, 3]	21.7	37.5
AACAAUACAGGAUAUACAUGAGGAUCACCCAUGUGAGAAUUAAGUGGCGUACCACAAGGUAGAAGGGUAAUGGA [Ruby 2]	22.4	34.7
AACAGUACAGGAUAUACAUGAGGAUCACCCAUGUAAAAAUAAAAGGGAAACUCAAAAAGUAGAAGGGUACUGGA [Moding Maslow revisited (73) 13]	117	78.6
AACAGUACAGGAUAUACAUGAGGAUCACCCAUGUAGGGAUAAAGUGGCGUACCACAAAGUAGAAGGGUACUGGA [Moding Maslow revisited (73) 4]	30.6	142
AACAGUACAGGAUAUACAUGAGGAUCACCCAUGUGAAAAUUAAGUGGCGUACCACAAUGUAGAAGGGUACUGGA [Moding Maslow Revisited (73) 24]	110	83.7
AACAGUACAGGAUAUACAUGAGGAUCACCCAUGUGAGAAUAAAGUGGCGUACCACAAAGUAGAAGGGUACUGGA [Mat - Exclusion 3 - JL mod - D20]	26.7	148
AACAUGUAAGGAUAUAGAAGAAAAGAAAAGAAAGAAAAGAACUAGAAGGUACAUGAGGAUCACCCAUGUAAGAA [EteRNA is fun!]	33.1	16.2
AACAUGUAAGGAUAUGAAAGAAAAGAAAAGAAAGAAAAGAAUCAGAAGGUACAUGAGGAUCACCCAUGUAAGAA [EteRNA is fun!]	34.7	26.7
AACCAACAUGAGGAUCACCCAUGUCAGGAUAUGCAAAUAACAAACAACAAACAACAAAGCAGAAGGGACAACAA [Mat - Exclusion 1 - Eli mod - D50]	15.4	20.5
AACUAACAUGAGGAUCACCCAUGUCAGGAUAUGCAAAGAACGAUCGAACGAACGAUAAGCAGAAGGGACAAAAA [Amethyst 96]	29.8	42.1
AACUGACAUGAGGAUCACCCAUGUCAGGAUAUGACUUGAAAAAUAAAAUAAAAACAUGUCAGAAGGGACAUGGG [Design 54 :P Sub-opt H]	20.2	18.9

Sequence	apparent KD of MS2 coat protein [1] [nM]	apparent KD of MS2 coat protein [2] [nM]
AACUGACAUGAGGAUCACCCAUGUCAGGAUAUGACUUGACGAAAAAAAACACGUCAUGUCAGAAGGGACAUGGA [Design 89: Sub-opt Z]	21.8	37.3
AACUGACAUGAGGAUCACCCAUGUCAGGAUAUGACUUGAUAGAAAAUAAAAUAUCAUGUCAGAAGGGACAUGAA [Design 61: Sub-opt KB]	14.3	12.4
AACUGACAUGAGGAUCACCCAUGUCAGGAUAUGAUUUGACGAAAUAAAAUAAGUCAUAUCAGAAGGGACAUGGG [Design 83: Sub-opt VB]	26.2	21.2
AACUGCGCAGGAUAUACAUGAGGAUCACCCAUGUAAAGAAAAGAAAGAUCCGAAGAAAGUAGAAGGGCGUGGAA [Variant 2 of Mod 1 of Ex3 sub 3, by Tesla's Dusciple Round 1]	43.2	56.3
AAGAAAGCAGGAUAUACAAGAAAGAAAGAAAAGAAAAGAAAACAUGAGGAUCACCCAUGUAGAAGGGCUUAGAA [EteRNA is fun!]	27.9	23.1
AAGAAAGCAGGAUAUACAUGAGGAUCACCCAUGUAAAAGAAAGAAAGGGAAAAGAAAAGUAGAAGGGCUAAGAA [Usermaatre-setepenre Pami]	23.6	26.1
AAGAAAGGAGGAUAUACAAAAUAAAAGAAAAGAAAGAAAGAACAUGAGGAUCACCCAUGUAGAAGGCCUAAGAA [Merhotepre Sobekhotep V]	23.5	14.4
AAGAACAGAGGAUAUACAUGAAAGAAAGAAAAGAAAAGAAAACAUGAGGAUCACCCAUGUAGAAGGCUGAAGAA [EteRNA is fun!]	28.1	25.1
AAGAACUCAGGAUAUGCUAAAGAAAUAAAAAUAAAUAAAGAACAUGAGGAUCACCCAUGUAGAAGGGAGAAGAA [Merkawre Sobekhotep VII]	76.4	46.2
AAGAAGAGAGGAUAUACAUGAGGAUCACCCAUGUAAAAGAAAGAAAAGGGAAAGAAAAGUAGAAGGCUCAAGAA [Aakheperrure Amenhotep II]	26.4	38.3
AAGAAGGGAGGAUAUACAAAAUAAAAGAAAAGAAAGAAAGAACAUGAGGAUCACCCAUGUAGAAGGCUCAAGAA [Mersekhemre Ined]	37.2	24.9
AAGAAGUCAGGAUAUCGAAGACAGACGAAAAGUCUGUCAAACGAGAAGGGACAUGAGGAUCACCCAUGUAAAGA [Mat - Exaclusion 4 - Eli mod - D73]	63.1	61
AAGAAGUCAGGAUAUGCCAAAGGUCACGAAAGUGACAAAGGGCAGAAGGGACAUGAGGAUCACCCAUGUAAAGA [Opal 2]	47.2	56.7
AAGAAGUCAGGAUAUGCGAAUCGAUAAGAACGUCAAAGAAAGCAGAAGGGACAUGAGGAUCACCCAUGUAAAGA [Opal 39]	30.7	27.6
AAGAAGUCAGGAUAUGCUAAAGAAAUGAAAAGAAAGAAAGAACAUGAGGAUCACCCAUGUAGAAGGGACAAGAA [Dedumose I]	47.1	38.3
AAGAAGUGAGGAUAUACAUGAGGAUCACCCAUGUAAAAGAAAGAAAAGGGAAAGAAAAGUAGAAGGCACAAGAA [Maatkare Hatshepsut]	36.2	58.3
AAGAAGUGAGGAUAUACAUGAGGAUCACCCAUGUAAAGAAGAAGAGGAGAGAAUAAAGGUAGAAGGCACAAGAA [JR_Exclusion3_Sub4]	33.6	39.6
AAGAAGUGAGGAUAUGUCUGUGCGAAAAAAAAAAAGUGCAGACAGAAGGCACAUGAGGAUCACCCAUGUGGAAA [Florian 65% 5]	27.8	29.1
AAGAAUCGAGGAUAUACAAAAUAAAAGAAAAGAAAGAAAGAACAUGAGGAUCACCCAUGUAGAAGGCGAAAGAA [Khaneferre Sobekhotep IV]	30.3	21.9
AAGAAUGCAGGAUAUACAUGAAAGAAAGAAAAGAAAAGAAAACAUGAGGAUCACCCAUGUAGAAGGGCAUAGAA [EteRNA is fun!]	26.8	44.1
